Patent US8461106B2, “Biofilm prevention using lactoferrin” (The Trustees of the University of Pennsylvania, priority 2007, dated 2013)

System: Pseudomonas aeruginosa (PAO1)
Experiment: Plate based peg-lid crystal violet biofilm formation assay (Moskowitz)
Format: cell-based
Details: for detergent induced biofilm formation, effect of concomitant rhLactoferrin: 3 mg/ml rhLactoferrin
Protocol: Biofilm growth is determined using the plate based assay described by Moskowitz et al [Moskowitz, S. M., J. M. Foster, J. Emerson, et al., Clinically Feasible Biofilm Susceptibility Assay for Isolates of Pseudomonas Aeruginosa from Patients with Cystic Fibrosis. J Clin Microbiol, 2004. 42(5): p. 1915-22]. Pseudomonas aeruginosa (PAO1) cultures are grown to log phase (OD600=0.5) and 100 μl of culture is mixed with 25 μl of test 5× test substance and placed in 96 well flat bottom plates (Nalgene Nunc International, Rochester, N.Y.). A lid containing 96 polystyrene pegs (Nunc, TSP 96 well micro titer plate lid) is placed on top and the pegs are suspended in the wells. The lid is loosely fixed to the plate using a strip of parafilm (Menasha, Wis.). The plate is incubated without shaking at 37° C. for 20 hours at which time the lid containing the pegs is carefully removed from the 96 well culture plate and rinsed 3 times in sterile water. The pegs are placed in another 96 well plate containing Gram Crystal Violet (CV) (20 g/L CV, 8 g/L Ammonium Oxalate, 2% ethanol) for 15 min and then rinsed in sterile water three times to remove unbound crystal violet. The pegs are then immersed in a 96 well plate containing 200 ul of 100% EtOH for 15 minutes. The lid containing the pegs is removed from the eluted crystal violet and is read at 595 nm using a plate reader (Microplate Reader 680, Bio-Rad Hercules, Calif.).
These mutants are used as negative controls in each of the experiments to determine background signal above the blank.
The concentration of baby shampoo/chemical surfactant used for the clinical study was determined through in-vitro testing on planktonic pseudomonas aeruginosa and pre-formed pseudomonas aeruginosa biofilms. Bacterial and biofilm growth inhibition was determined using the plate based assay described in Moskowitz et al., (Clinically feasible biofilm susceptibility assay for isolates of Pseudomonas aeruginosa from patients with cystic fibrosis. J. Clinical Microbiology 2004; 42:1915-22). Briefly, PAO1 Pseudomonas aeruginosa bacterial strains were grown overnight. The following morning the culture was diluted to an OD600=0.1 with Luria-Bertani broth (LB) and the sample again diluted 1:100 in LB. […] At the completion of the incubation the lid containing the pegs was removed and processed for biofilm detection while the 96 well plate was analyzed for bacterial growth by determination of absorbance at 600 nm. […] The peg lid was then discarded and the eluted crystal violate was read on a microtiter plate reader (Microplate Reader 680, Bio-Rad Hercules, Calif.) at an optical density of 595 nm (OD595). […] Quantification of residual biofilms was performed as described above.

B1: rhLactoferrin: Recombinant human lactoferrin produced in Aspergillus niger, structurally identical to native human lactoferrin (protein, UniProt P02788 20-710, looked up)
Lactotransferrin: GRRRSVQWCAVSQPEATKCFQWQRNMRKVRGPPVSCIKRDSPIQCIQAIAENRADAVTLDGGFIYEAGLAPYKLRPVAAEVYGTERQPRTHYYAVAVVKKGGSFQLNELQGLKSCHTGLRRTAGWNVPIGTLRPFLNWTGPPEPIEAAVARFFSASCVPGADKGQFPNLCRLCAGTGENKCAFSSQEPYFSYSGAFKCLRDGAGDVAFIRESTVFEDLSDEAERDEYELLCPDNTRKPVDKFKDCHLARVPSHAVVARSVNGKEDAIWNLLRQAQEKFGKDKSPKFQLFGSPSGQKDLLFKDSAIGFSRVPPRIDSGLYLGSGYFTAIQNLRKSEEEVAARRARVVWCAVGEQELRKCNQWSGLSEGSVTCSSASTTEDCIALVLKGEADAMSLDGGYVYTAGKCGLVPVLAENYKSQQSSDPDPNCVDRPVEGYLAVAVVRRSDTSLTWNSVKGKKSCHTAVDRTAGWNIPMGLLFNQTGSCKFDEYFSQSCAPGSDPRSNLCALCIGDEQGENKCVPNSNERYYGYTGAFRCLAENAGDVAFVKDVTVLQNTDGNNNEAWAKDLKLADFALLCLDGKRKPVTEARSCHLAMAPNHAVVSRMDKVERLKQVLLHQQAKFGRNGSDCPDKFCLFQSETKNLLFNDNTECLARLHGKTTYEKYLGPQYVAGITNLKKCSTSPLLEACEFLRK
modifications: recombinant, Aspergillus niger
B1 was tested, and the “detergent induced biofilm formation, effect of concomitant rhLactoferrin” value (induction by Curosurf, FIG. 5 bottom panel) was “blunts the induction of biofilm formation”, the “detergent induced biofilm formation, effect of concomitant rhLactoferrin” value (induction by Johnson and Johnson Baby Shampoo, FIG. 5 top panel) was “blunts the induction of biofilm formation” and the “detergent induced biofilm formation, effect of rhLactoferrin” value (detergents in general, FIGS. 4 and 5) was “inhibits detergent induced biofilm formation”. For the same molecule, the “induction of biofilm formation by subtherapeutic concentrations of antibiotics, effect of added rhLactoferrin” value (subtherapeutic Cephalosporins and aminoglycosides, FIG. 3) was “blunted”.
